This passage reports protease stability score results from the NTF2 design screens of Basanta et al. (2020).

The nature of this data set: protease stability score; higher = more stable; yeast display proteolysis, trypsin and chymotrypsin.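 Also: relative to predicted unfolded state with 0 unfolded-like and 1 meaning tenfold more protease.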
Sequence “DTTEKHQKDMARAQIHSLETGDFKELMELLDPNVRFEFEVGDKRIERHGRELMVHFILKEYEEIRIRIDSWRVVNGVVKIELRLHVGDKESRIEIYLLIINGQAKSVHFDVR” displayed a protease stability score of 1.09.

“DEEEHDARELARIVIEQFLTGNEDMLREFMDPNTRLHVNGVHRHGRESMVIMLRQLRTKRVHIKSIRIIGEKVDVDGILNGEVNGVEDNHQVHFHLIKVDGQWYIHHVIIR”: the protease stability score turned out to be 1.39.

“SEEEDDLQHYIDVLRHILHTGDWQKFSEMADPTVKLKINGVEYHGREKLAHMLKKHLEELGYTRIEVELRSITIQGEFIKSDIKLDVNGQELRVRVDFYKINGKWSMTFLQIE” displayed a protease stability score of 1.45.

In turn, “SEEEKDNKLAIHLTMEILRTGDEEHSKKMIDPDARHQQGDKELHGMEEVSTEIMEIWRRYKGVKFEVKRVHMQGEFIKIKVDLHVNGQTLDVIIVLYKVDGRWTIHSIHVH” returned a protease stability score of 1.48.

With “DEETEWLERLVRVILHALDTGDEDEMNQNADPHTRVRVGDKEYHGRELFLDVFRERVHRLGIDHSNLREFDIQGDFFHLDTRLQVGDKFLEVNLIFHVINGRITIVRIDYR”, the protease stability score was determined as 1.15.

Sequence “DELHETVEHAMERMIESSKTGDWRSLTKLMDPNVRMHIDGVDLIGWEIAVRVILEIRIEHVHIHHIDVQGDKMEVDVSVRIHFNGKHEDRQIVLFAEKVDGRWINRSVEIR” displayed a protease stability score of 1.

On to “TEDQEQLEQHIRELTHNWHTGDFDSLKKLFDPNVKLEIGDKEYHGRELAEKYIRDELRHLRIEHVENREWRLINGVIILHTRLVGNIDGQRVERDTEIYVKKFDGQWIIEIFRVH”, for which the protease stability score turned out to be 1.34.

With “DEDQKETEEAIKELEKLSKTGNEHDFLRYFDPNMRVEIGDKEIWGRERALEIFHELGVKHIEVKRVDVQGDKIRMDTLLRVNGQELHTQVVALKINGQWILESYRVE”, the protease stability score was found to be 1.09.

In the case of “NELDKHTKEFAERWIKSVETGDWRSEEHLLDPHVKLETKVNGRDVRVVGREEVHRYLRELHEELGVDKVEFITRRIRLQGDKIDIDGELRINGRTHEAHIHLDIINGRIHSVRLQWT”, the protease stability score worked out at 1.44.

In the case of “DEDVEDSLRALRELTKSLITGDEDSFRHLADPHARFIWNGKEIHGWEEVVKVVSKILKHLRFDDIILRDIRIQGDKIEFVVTDLVTVGDKHEEVDSRVTIYKVNGRWLLHTIKIR”, the protease stability score came out at 1.3.

For “SEDEQSLREHIEWIIRALETGDWKKIEKLLDPHTRQDVNGREHIGREEVSRAIVQTFETLGVDHVQLTEIRNINGRLIVHVKMDVNGKILDLELIVTKIDGKWFMESVRLH”, the protease stability score came to 1.89.

“DEDRRDIDDFLRLMLEATHTGDFKSFLELADPNMRIQIGDKEMVGRENIERWFEEDHRQAGIQRVETELRVRSKLLIGNKMHVDIEIRRRYNGVEEVYDVELILLKYNGVWWLEEFRVR” displayed a protease stability score of 1.58.

For “DENEQEARKAIEELIHNRETGDEQRMSELLDPHTRIDYNGVEVHGRHYLLKLLRRIDHSRFNLRRLDIQGEKIIMEGELELDVNGVKIRIKLTEIILKVNGRWILHSSRIE”, the protease stability score was found to be 1.95.

“DEKDKITQDLVKNIIDLFRTGNEDDLRRLADPHVQTHVNGRTIIGMEDASRKIKEILEELGIDHVHWHHVQAQGEKVEIHMEHRVGDKNWELIIRMDLVNGRIKRQEVELR” showed a protease stability score of 0.927.

“SEDEEIWRRYAKEWYHNWSTGNFDRFKQLMDPDARFIYGDKELVGREEVLRRIRHLLEHLRFKRSEIKREHVVNGVLHLDVHEDGEQGDKSRRSDVEIILYVINGRLHTVEIRIE” registered a protease stability score of 1.61.

Regarding “DEQKHVFNNVLRWLLESLETGDEEDLERLMDPNTRLHINGQDLHGREALRKHIEHRLKSLGVDHVHLRVHDVHIIDGKIEVDSELDLKIGDKEIRMKVRLIALKINGRWLVKHFDVT”, the protease stability score is 1.29.

The sequence “SEDEKRLLDLAKEWIHNWLTGDEESMQKLADPSTRYEIGDKELHGMEEVNRSIKISLDELRVKHIDIERVKAINGVVTIHTRIDVEFNGKRMIIETIIRIDIFNGRIKQVWVEFR” displayed a protease stability score of 1.21.

For the sequence “DEEKKVAMELAILLFHLWLTGDEETERRLADPDTRMDVDGKDIIGREELSKVWERILKEMRFDRWEVDRVDVVNGQVHLHGHIRGKYNGKEETREIEITINIVNGRLKSVHFNLR”, the protease stability score worked out at 1.87.

Sequence “DEEEEWARYILKKTMEAWLTGDEEIIRELLDPSTRLVIDGKEFHGMDEAQFLVREIRIDRIRTDMHDVKFQGDWIHVDGHIRVDETVNGRRRHKENRINIIVLKIDGRWYLHRYIIG” displayed a protease stability score of 2.35.

For the sequence “DEEEKILLHLLNVILHLLKTGDEEMMTELMDPNMKIDNENHKSHGWEALKFVRDQIRIHSINIREQRVQGEFAILRVDVDVEWNGRRIRTEIELHFVFVNGRVKEVHIQVK”, the protease stability score turned out to be 1.02.

“DEDEERSERLLHMVIELLLTGDEEKWNNLLDPHARVEIDGQERHGRHIVTHFLTRFKNVRMHIHDVKVYGEKVDITTEITFNGKHINVHIELVFVNGKMTSVRFEWHRH” showed a protease stability score of 2.02.

“DEDHEHLERHTRLFLERWRTGDEETLLKLFDPHARSEYGDKHHVGREEVTKLMVIILEKVKGLTIRRLRIKHIEYVDGRAHMDMEVTSEIDGQEVIESVHILMTKVDGRWRIQRVILV” registered a protease stability score of 0.927.

Take “SEEEEQFKKVFEIVIRFIITGDEHSMLKNADPNARLEIGDKEVIGMENLLERLTRIIDQFKNVRIEFHVKDHDLQGDKLHLETEIVLKFDGRELRIILHIVWTKINGRWIITSLSER”: the protease stability score is 1.17.

In turn, “DEKEKLKQLARKFHKAMQTGDEDELKKNVDENVRADYGDRRYHGSEELAKWLREMKTKVDHLSMTIKDIRVKGDRAEIELEMTFDHNGRQETRQFTLQAQVHNGSLKIVQIRQS” yielded a protease stability score of 1.47.

On to “SEIEEESEEHLNLYMHAMHTGDWHTLERLADPNVRMDVNGQEHHGREEFVKVLVHMIEHLGIDHVRVKHLDLQGDKLHADTTEEVNGRRIHTILDVTKINGRWFITSLEIH”, for which the protease stability score turned out to be 0.495.

The sequence “SEDKELAERLYHLLLRTLITGDEKQLIDNMDPDARVHVGDKHRHGMEWMNRYLHELRIRDQDDKDIRLQGNKVHVDGHVRGNINGQEIDYRFHIELITINGVVHMINIQIR” came in with a protease stability score of 0.945.

Take “DDRERQAESMMHLWLEVLLTGDEDRLMKLADPNTRHHVNGVDAHGRENIKRVAKEFDEQMRIHRVEIRQVRIIGDKTEVDGRVDVEVNGRRRDTETHLRVIVIDGRIHEVHLIIR”: the protease stability score was 0.725.

In turn, “DEEDEYYNMALEHFVKTILTGNWKRFKKLADPHVRMEIDGREHHGREEATKVFNRFDHIKNFDFRDIELQGEKIEVHGELHGTINGKDVHTSFHIIMYKVNGKWEEKEVKFQ” returned a protease stability score of 1.28.

“SEEEDLWKEFLRRLVETSNTGNERILSELFDPRTRIIYNGVDYVGREWALFMFLRADHVHIRIKSVDVQGEKAHVDGRMIQFVGDKEERHEVQLIDVKIDGRWLIRMMTVR” registered a protease stability score of 1.51.

Consider “DKEEHLVKILIEILHREWETGDEDSISRNADPNTRVDIGDKHFHGREDAMEVLKRMLHQFPNIKFHIEDMRIIGNFVEIDVVINWNGKDVKSHLVFFKINGRWLTRHVEIR”, for which the protease stability score came to 1.32.

As to “SEDEEDMKKASETISEEYHTGDEDAHKKLMDPNARMLYGDKDTHGREHWEHVIKRFGFDHVIIKRIEIHVYDGRIDLHMDVRLIVNGQNLEVRLIIIVRKINGRWRIESVNIHIE”, the protease stability score amounted to 0.061.

For “SEDERDIREAFKRWVHNVETGDFESLLKLFDPNVKTTIDGREYHGRDFLVRRLSEMRVHHIEIEHFDIQGDKVNVRGRMDGQIGDKRQDVHFVIHMVKINGRWLLTELTEK”, the protease stability score is 2.23.

For the sequence “SEEEKEAERMLRLWIETVKTGNEEVWRELFDPNARMLIGDKESVGREQIEELVRSVYDRLGAKVIHDFYIDRIHVIGDKVEIDSRVDSIINGRRYHLETHIIFVKINGKWVLKSVELR”, the protease stability score stood at 2.06.

In turn, “SELEHLMEEAWRLLLEAIRTGDEKLTNKLLDPNVRIEVGEFHYHGRELMLTWFKYELKHLRFKDSRIDHFDVVDGVAKMRTTDTNLVNGRDVTLDVIYVILKVNGRWVFHSMEIR” returned a protease stability score of 0.861.

“SEVERLLREILKLVQHAYETGDEETITELVDPHARMDINGKELHGRDMLHLLLRRIDHEHMRVEMKSVEIQGEWAISRGEEQVHVHVNGKKFDLVINSRVVLHKVDGQWVVRSLFYK”: the protease stability score is 0.787.

In turn, “DHEKENIERSSRIMLRLYETGDEDELRKLADPHARSEVGEFEYHGREEVFRWLNLLIRELGAKHITIRDIKYVGNKLTLHMISHVDGRELNLEIWAIKIDGQWLLTTVHHK” gave a protease stability score of 0.69.

Sequence “DEHEETIKRLAEIMEKWWFTGDEDALRLLLDPHVRIHLHQGDFNLDLIGMEHLRRLIHELIRKLGIDHSILKDRDIQGDKVTIHMELRIGDKTVTSHITMVMINGRLESFKIHFK” yielded a protease stability score of 1.32.

In turn, “RKEEEDLHKLLEHLSENYWTGNEEMFNHLADPHTRFEIRIGEFTIEDHGRERIKELVEWLLRFLGANHSHLTSIRVVGDKFHVNSLIHVDGREHTLHIIFVFINGRLTHYSMEVR” had a protease stability score of 1.35.

The sequence “DELNEITHKFMHEFLRAELTGDWEELHRMLDPHARYIAHIDGREIHFIGRERVLKFMEEWLRRVKNVRIQINDHRVQGDYNHIDGKLKINGKTHDVHIELVMVDGRNHEIHVFIH” showed a protease stability score of 1.61.

“DEITETAERLLRLWVHNFETGNWKKMVDLIDPNARLDVNGRHIHGWEEIAKHLTDELREWRIREIRIRDVKFIDGVNHTHIESDIEYDGRRDRTEMRIIIVVVNGRIKSVKFEIL” gave a protease stability score of 1.2.

Sequence “SEEDKSFEIMFKLFKEASDTGDEKTLSELFDPDTRIDIGDKHLHGREEAVRMWRELRIHDIRVKSFDIIGNKIHLDTHVNGLVNGRLHRTDSKIILLKVNGQWRIESYHVD” showed a protease stability score of 1.77.

“RETEEEIRHAHELLLEAEQTGDEHILHHMLDPNVRFQVGDKHIHGRENFMKQFRKLWEDFGVDHIEIRLKEMRVFENRVHVRGELIIRVGDKEMRTKHIEVSEKIDGKWLLHSVKFE”: the protease stability score was found to be 1.14.

In the case of “DEEKHEFELLLRLWLRTMETGDEQMSRRLVDPNVRIEIGDKDIHGREEMSRIVRHWRVHDYDIKDSTVQGDKAHLDGHIEGTIDGKTTRFHIHLNLEKINGRWLIKEVVVE”, the protease stability score came to 2.19.

Turning to “SEERHELERTLKRYQDALITGNEEQMEKLIDPNVRTRIDGVDLIGMELVIEELVEWLDRYPNVRIHSHIHEVRFQGDKADIDSRLHLIFDGQEYRLHTRIHIWKFNGRWVLTHSEID”, the protease stability score came to 0.884.

As for “DHVDEETEKMTNEITKALLTGDEDRLLELADPHVRVIVHVGDKTIHLVGRELMVEEYRRWVKEAGFDKVHHEKKHSDFVDGRAEVHSKVDVGDKHVEYRIIITKVNGKWVIKSIIIIVR”, the protease stability score stood at 2.15.

As to “DEKTEHERELSERLLKAILTGDEDLFKELADPNVRIISEIDGRKDESHGWTAWHRIMQSLGFNVMRIDHHELINGVQYVESTLDINGVRRKTHLIIRIINGKVKEVRFSID”, the protease stability score amounted to 1.88.

Sequence “DEMEDSSRWALEVEMKSFKTGDERSLYEMVDPHAKFEFENHHDHGRSAVELWREQADHMHIDFRLKDMRLVGDFIIIHGVELVHNHVNGRDIDLNLDVRIISRKINGRWILHHVLFR” returned a protease stability score of 1.38.
